From patent publication US20030158102A1 (MAYO FOUNDATION FOR MEDICAL EDUCATION AND RESEARCH, published 2003)

Columns and labels:
[1] = target: T1, B7-H2mIg (extracellular domain of human B7-H2 linked to mouse IgG2a) (human; mouse, UniProt O75144 19-256); experiment: capture ELISA, B7-H2mIg coated, anti-human IgG-HRP detection
T1 construct: extracellular domain; also called B7-H2Ig (mouse Ig); B7-H2Ig; not shown: mouse IgG2a
T1 sequence (looked up): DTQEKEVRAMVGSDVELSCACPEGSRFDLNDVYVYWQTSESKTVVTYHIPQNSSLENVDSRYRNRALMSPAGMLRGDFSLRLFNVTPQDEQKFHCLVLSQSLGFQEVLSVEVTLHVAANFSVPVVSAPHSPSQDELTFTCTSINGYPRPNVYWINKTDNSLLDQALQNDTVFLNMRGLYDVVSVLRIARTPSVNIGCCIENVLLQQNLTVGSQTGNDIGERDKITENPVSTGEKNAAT
Procedure: The ability of ICOSIg mutants to bind B7-H2 was measured using capture ELISA. Recombinant B7-H2mIg fusion proteins were coated on microtiter plates at 5 μg/ml and incubated overnight at 4° C. As described above, wells were blocked and then washed with PBS-Tween, and COS cell culture media was added and incubated for 2 hours at room temperature. HRP-conjugated goat anti-human IgG was added after washing, followed by TMB substrate and H₂SO₄, and absorbance was measured at 405 nm.
^a The regions, nucleotides, or amino acids in front of the slash were replaced with the corresponding regions, nucleotides, or amino acids after the slash. ^b Nucleotides are numbered from the A of the initiation codon. ^c Amino acids are numbered from the initiation methionine. ^d Specific binding activities were determined for each of the indicated fusion proteins. The concentration of a fusion protein required to give an arbitrary A405, which is the same as that of wild type ICOSIg, was determined from the linear region of binding curves and expressed as a percentage of specific binding activity of ICOSIg. Values represent the average of three determinations from each binding curve. The results are representative of three experiments.

[2] = target: T2, B7-H2Ig fusion protein (extracellular domain of human B7-H2 linked to an Ig portion); which one not said for … (human, UniProt O75144 19-256); experiment: cell-based or functional assay
T2 sequence (looked up): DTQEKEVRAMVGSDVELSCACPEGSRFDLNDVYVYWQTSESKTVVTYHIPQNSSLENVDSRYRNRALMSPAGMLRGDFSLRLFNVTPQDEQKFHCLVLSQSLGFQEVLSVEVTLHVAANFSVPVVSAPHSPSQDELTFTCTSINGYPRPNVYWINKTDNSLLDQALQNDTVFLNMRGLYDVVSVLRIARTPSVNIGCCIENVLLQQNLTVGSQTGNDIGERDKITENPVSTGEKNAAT

[3] = target: T3, human B7-H2 expressed on transfected CHO cells (human, UniProt O75144 19-302); experiment: FACS on B7-H2+ CHO cells
T3 construct: whole, on cells; also called B7-H2+ CHO cells
T3 sequence (looked up): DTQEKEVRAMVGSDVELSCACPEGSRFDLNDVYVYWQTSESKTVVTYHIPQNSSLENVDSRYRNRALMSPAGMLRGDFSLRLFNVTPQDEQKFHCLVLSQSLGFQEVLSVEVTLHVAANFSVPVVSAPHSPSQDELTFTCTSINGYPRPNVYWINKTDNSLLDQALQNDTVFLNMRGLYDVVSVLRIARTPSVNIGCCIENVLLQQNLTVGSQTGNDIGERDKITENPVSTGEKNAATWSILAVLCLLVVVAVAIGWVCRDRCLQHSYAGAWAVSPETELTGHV

[4] = target: T3, human B7-H2 expressed on transfected …; experiment: FACS on CHO cells transfected to express B7-H2
Procedure: Flow cytometry: B7-H2⁺ CHO cells (1×10⁵ cells per sample) were incubated on ice for 45 minutes, in a 1:1 mixture of fluorescence activated cell sorter (FACS) buffer (3% FBS and 0.02% NaN₃ in PBS):COS cell culture media containing ICOSIg fusion proteins. The B7-H2Ig fusion protein was used as a negative control. The cells were washed and further incubated with fluorescein isothiocyanate (FITC)-conjugated goat anti-human IgG (BioSource, Camarillo, Calif.) on ice for 30 minutes. Fluorescence was analyzed on a FACScaliber flow cytometer (Becton Dickinson, Mountain View, Calif.) with Cell Quest software (Becton Dickinson).
Mutagenesis analysis of the interaction between ICOS and B7-H2: The conserved regions within ICOS were subjected to mutagenesis in order to analyze their importance for binding to B7-H2. […] These constructs were expressed as ICOSIg hybrid proteins in COS cells, and the concentrations of the mutant proteins in serum-free culture media was determined by sandwich ELISA using anti-human Ig mAbs (BD Pharmingen). […] The ability of each ICOSIg mutant to bind to B7-H2 was determined by sandwich ELISA using B7-H2Ig (mouse Ig) and anti-human Ig mAb (FIG. 3A), and also by FACS analysis of ICOSIg binding to CHO cells that were transfected to express B7-H2. […]

B1: wild-type ICOSIg (extracellular domain of human ICOS fused to the CH2-CH3 portion of human IgG1) (Fc fusion)
chain: EINGSANYEMFIFHNGGVQILCKYPDIVQQFKMQLLKGGQILCDLTKTKGSGNTVSIKSLKFCHSQLSNNSVSFFLYNLDHSHANYYFCNLSIFDPPPFKVTLTGGYLHIYESQLCCQLK
notes: Made in COS cells; used as concentrated supernatant or purified; also called human ICOSIg; not shown: CH2-CH3 portion of human IgG1
B7-H2 Binding (specific binding activity as percentage of ICOSIg) [1]: 100 % of wild type ICOSIg

B2: ICOSIg mutant Ser76Glu (Fc fusion)
chain: EINGSANYEMFIFHNGGVQILCKYPDIVQQFKMQLLKGGQILCDLTKTKGSGNTVEIKSLKFCHSQLSNNSVSFFLYNLDHSHANYYFCNLSIFDPPPFKVTLTGGYLHIYESQLCCQLK
notes: Built on ICOSIg cDNA; also called Ser76Glu mutant; Ser76Glu protein; not shown: CH2-CH3 portion of human IgG1
B7-H2 Binding (specific binding activity as percentage of ICOSIg) [1]: 300 % of wild type ICOSIg | T cell proliferation ([3H]-thymidine) costimulated by immobilized B7-H2Ig with anti-CD3 mAb [2]: ~10 fold (against wild-type ICOSIg)

B3: ICOSIg mutant Pro117Ser (Fc fusion)
chain: EINGSANYEMFIFHNGGVQILCKYPDIVQQFKMQLLKGGQILCDLTKTKGSGNTVSIKSLKFCHSQLSNNSVSFFLYNLDHSHANYYFCNLSIFDPSPFKVTLTGGYLHIYESQLCCQLK
notes: Built on ICOSIg cDNA; also called Pro117Ser mutant; not shown: CH2-CH3 portion of human IgG1
binding result [3]: no binding | B7-H2 Binding (specific binding activity as percentage of ICOSIg) [1]: < 0.1 % of wild type ICOSIg

B4: ICOSIg mutant Lys67Ser (Fc fusion)
chain: EINGSANYEMFIFHNGGVQILCKYPDIVQQFKMQLLKGGQILCDLTSTKGSGNTVSIKSLKFCHSQLSNNSVSFFLYNLDHSHANYYFCNLSIFDPPPFKVTLTGGYLHIYESQLCCQLK
notes: Built on ICOSIg cDNA; not shown: CH2-CH3 portion of human IgG1
binding result [3]: no binding | B7-H2 Binding (specific binding activity as percentage of ICOSIg) [1]: < 0.1 % of wild type ICOSIg

B5: ICOSIg homologue replacement mutant RP49-52 (Fc fusion)
chain: EINGSANYEMFIFHNGGVQILCKYPDIVREFRMQLLKGGQILCDLTKTKGSGNTVSIKSLKFCHSQLSNNSVSFFLYNLDHSHANYYFCNLSIFDPPPFKVTLTGGYLHIYESQLCCQLK
notes: not shown: CH2-CH3 portion of human IgG1
B7-H2 Binding (specific binding activity as percentage of ICOSIg) [1]: 9 % of wild type ICOSIg

B6: ICOSIg mutant Lys69Ser (Fc fusion)
chain: EINGSANYEMFIFHNGGVQILCKYPDIVQQFKMQLLKGGQILCDLTKTSGSGNTVSIKSLKFCHSQLSNNSVSFFLYNLDHSHANYYFCNLSIFDPPPFKVTLTGGYLHIYESQLCCQLK
notes: as for B4
B7-H2 Binding (specific binding activity as percentage of ICOSIg) [1]: 3 % of wild type ICOSIg

B7: ICOSIg mutant Phe51Ser (Fc fusion)
chain: EINGSANYEMFIFHNGGVQILCKYPDIVQQSKMQLLKGGQILCDLTKTKGSGNTVSIKSLKFCHSQLSNNSVSFFLYNLDHSHANYYFCNLSIFDPPPFKVTLTGGYLHIYESQLCCQLK
notes: as for B4
binding result [3]: no binding | B7-H2 Binding (specific binding activity as percentage of ICOSIg) [1]: < 0.1 % of wild type ICOSIg

B8: ICOSIg mutant Gln49Ser (Fc fusion)
chain: EINGSANYEMFIFHNGGVQILCKYPDIVSQFKMQLLKGGQILCDLTKTKGSGNTVSIKSLKFCHSQLSNNSVSFFLYNLDHSHANYYFCNLSIFDPPPFKVTLTGGYLHIYESQLCCQLK
notes: as for B4
B7-H2 Binding (specific binding activity as percentage of ICOSIg) [1]: 33 % of wild type ICOSIg

B9: ICOSIg mutant Phe119Ser (Fc fusion)
chain: EINGSANYEMFIFHNGGVQILCKYPDIVQQFKMQLLKGGQILCDLTKTKGSGNTVSIKSLKFCHSQLSNNSVSFFLYNLDHSHANYYFCNLSIFDPPPSKVTLTGGYLHIYESQLCCQLK
notes: as for B4
binding result [3]: no binding | B7-H2 Binding (specific binding activity as percentage of ICOSIg) [1]: < 0.1 % of wild type ICOSIg

B10: ICOSIg mutant Asp115Ser (Fc fusion)
chain: EINGSANYEMFIFHNGGVQILCKYPDIVQQFKMQLLKGGQILCDLTKTKGSGNTVSIKSLKFCHSQLSNNSVSFFLYNLDHSHANYYFCNLSIFSPPPFKVTLTGGYLHIYESQLCCQLK
notes: as for B4
binding result [3]: no binding | B7-H2 Binding (specific binding activity as percentage of ICOSIg) [1]: < 0.1 % of wild type ICOSIg

B11: ICOSIg mutant Asp64Ser (Fc fusion)
chain: EINGSANYEMFIFHNGGVQILCKYPDIVQQFKMQLLKGGQILCSLTKTKGSGNTVSIKSLKFCHSQLSNNSVSFFLYNLDHSHANYYFCNLSIFDPPPFKVTLTGGYLHIYESQLCCQLK
notes: as for B4
B7-H2 Binding (specific binding activity as percentage of ICOSIg) [1]: 6 % of wild type ICOSIg

B12: ICOSIg mutant Gln50Ser (Fc fusion)
chain: EINGSANYEMFIFHNGGVQILCKYPDIVQSFKMQLLKGGQILCDLTKTKGSGNTVSIKSLKFCHSQLSNNSVSFFLYNLDHSHANYYFCNLSIFDPPPFKVTLTGGYLHIYESQLCCQLK
notes: as for B4
B7-H2 Binding (specific binding activity as percentage of ICOSIg) [1]: 6 % of wild type ICOSIg

B13: ICOSIg mutant Phe114Ser (Fc fusion)
chain: EINGSANYEMFIFHNGGVQILCKYPDIVQQFKMQLLKGGQILCDLTKTKGSGNTVSIKSLKFCHSQLSNNSVSFFLYNLDHSHANYYFCNLSISDPPPFKVTLTGGYLHIYESQLCCQLK
notes: as for B4
binding result [3]: no binding | B7-H2 Binding (specific binding activity as percentage of ICOSIg) [1]: < 0.1 % of wild type ICOSIg

B14: ICOSIg mutant Lys52Ser (Fc fusion)
chain: EINGSANYEMFIFHNGGVQILCKYPDIVQQFSMQLLKGGQILCDLTKTKGSGNTVSIKSLKFCHSQLSNNSVSFFLYNLDHSHANYYFCNLSIFDPPPFKVTLTGGYLHIYESQLCCQLK
notes: as for B4
B7-H2 Binding (specific binding activity as percentage of ICOSIg) [1]: 200 % of wild type ICOSIg

B15: ICOSIg homologue replacement mutant RP64-78 (Fc fusion)
chain: EINGSANYEMFIFHNGGVQILCKYPDIVQQFKMQLLKGGQILCVVYGNYSQQLQVYSKSLKFCHSQLSNNSVSFFLYNLDHSHANYYFCNLSIFDPPPFKVTLTGGYLHIYESQLCCQLK
notes: as for B5
B7-H2 Binding (specific binding activity as percentage of ICOSIg) [1]: < 0.1 % of wild type ICOSIg | binding result [4]: no binding
